Here are results for two substances from article PMC6797443, “Experimental characterization of two archaeal inosine 5'-monophosphate cyclohydrolases” (PLoS ONE, 2019).

The test system of data set [1] is NC(=O)c1ncn([C@@H]2O[C@H](COP(=O)(O)O)[C@@H](O)[C@H]2O)c1NC=O. The data set is described as follows: purified protein. The note with it: 0.050 M Tris, pH 7.3, 50°C, MBP fusion. It is filed as biochemical, Archaeoglobus fulgidus.
Data set [2] shares this test system. The data set is described as follows: purified protein. In kind it is biochemical, Thermococcus kodakarensis. The note with it: 0.050 M Tris, pH 7.3, 50°C, MBP fusion.

The term Km denotes the substrate concentration at which the rate is half of its maximum. A word on the kcat: it is the number of substrate molecules converted per active site and unit of time at saturation. In the case of “AF1811 (Archaeoglobus fulgidus PurH2) (Archaeoglobus fulgidus DSM 4304)”, in data set [1], the Km came out at 7.8 ± 1.8 µM and the kcat stood at 1.32 ± 0.14 s⁻¹.

On to “TK0430 (Thermococcus kodakarensis PurO) (Thermococcus kodakarensis KOD1)”, for which, in data set [2], the Km was 1.56 ± 0.39 µM and the kcat was determined as 0.48 ± 0.04 s⁻¹.
